Laboratory results from patent US9708383 (Novo Nordisk, dated 2017).
*1 amine or outer side, *2 acyl side, *3 side chain or, on linkers, in order; H or OH if unused. Where no end group is shown, it is not given here. Side-chain parts run from the residue outwards. [ ]: non-standard residue; d: D form. The star is where a group is joined. Decanoyl(10-(4-HOOC-PhO)) = O=C(O)c1ccc(OCCCCCCCCCC(=O)*)cc1; γGlu = O=C(O)[C@H](CCC(=O)[*:2])N[*:1]; Hexanoyl(6-Ph) = O=C(CCCCCc1ccccc1)*; C12 diacid = O=C(O)CCCCCCCCCCC(=O)*; 13‑carboxytridecanoyl = C14 diacid; Butanoyl(4-Ph) = O=C(CCCc1ccccc1)*; AEEA = NCCOCCOCC(=O)O; Aib = CC(C)(N)C(=O)O; Ahx = NCCCCCC(=O)O

Tests used:
[1] = molecular target: T1, human GLP-1 receptor (human, UniProt P43220 24-463); assay: SPA, 2.0% vs 0.005% HSA
T1 construct: whole, on cells; Used as purified membranes of the transfected hamster cells, not whole cells; also called hGLP-1
Procedure: (§1) A shift in the binding affinity, $IC50$, is an indication that the derivative in question binds to albumin, and thereby a prediction of a potential protracted pharmacokinetic profile of the derivative in question in animal models.
(§2) 25 ul (microliter) of test compounds are added to Optiplate. HSA ("high albumin" experiment containing 2% HSA), or buffer ("low albumin" experiment containing 0.005% HSA), was added (50 ul). 5-10 µg protein/sample was added (50 ul) corresponding to 0.1-0.2 mg protein/ml (to be preferably optimised for each membrane preparation). SPA-particles (Wheatgerm agglutinin SPA beads, Perkin Elmer, #RPNQ0001) were added in an amount of 0.5 mg/well (50 ul). […] The plates were sealed with PlateSealer and incubated for 120 minutes at 30° C. while shaking. The plates were centrifuged (1500 rpm, 10 min) and counted in Topcounter.

[2] = molecular target: T1, human GLP-1 receptor; assay: SPA, displacement of 125I-GLP-1(7-36)NH2, 0.005% HSA
Procedure: as §1, §2

Row | Binder | ratio IC50 high HSA/IC50 low HSA [1] | IC50 [2]
1 | H[Aib]EGTFTSDVSK([AEEA-AEEA-γGlu-Decanoyl(10-(4-HOOC-PhO))])YLEEQAAK([AEEA-AEEA-γGlu-Decanoyl(10-(4-HOOC-PhO))])EFIAWLVQGRG [GLP-1 derivative of Example 2: [Aib8,Lys18,Glu22,Gln34]-GLP-1-(7-37)-peptide] | > 1 | < 1 µM
2 | H[Aib]EGTFTSDVSK([AEEA-AEEA-γGlu-13‑carboxytridecanoyl])YLEEQAVREFIAK([AEEA-AEEA-γGlu-13‑carboxytridecanoyl])LVRGRG [GLP-1 derivative of Example 74: [Aib8,Lys18,Glu22,Val25,Arg26,Lys31,Arg34]-GLP-1-(7-37)-peptide] | > 1 | < 1 µM
3 | H[Aib]EGTFTSDVSK([AEEA-AEEA-γGlu-13‑carboxytridecanoyl])YLEEQAAK([AEEA-AEEA-γGlu-13‑carboxytridecanoyl])EFIAWLVRGRG [GLP-1 derivative of Example 100: [Aib8,Lys18,Glu22,Arg34]-GLP-1-(7-37)-peptide] | > 1 | < 1 µM
4 | HXEGTFTSDVSKYLEGQAAKEFIAWLVRGRG (Aib8; Lys18 and Lys26 each Nε-acylated with 10-(4-carboxyphenoxy)decanoyl-gGlu-OEG-OEG) [GLP-1 derivative of Example 93: [Aib8,Lys18,Arg34]-GLP-1-(7-37)-peptide] | > 1 | < 1 µM
5 | H[Aib]EGTFTSDVSK([AEEA-AEEA-γGlu-Decanoyl(10-(4-HOOC-PhO))])YLEEQAAREFIAWLVRGRK([AEEA-AEEA-γGlu-Decanoyl(10-(4-HOOC-PhO))]) [GLP-1 derivative of Example 1: [Aib8,Lys18,Glu22,Arg26,Arg34,Lys37]-GLP-1-(7-37)-peptide] | > 1 | < 1 µM
6 | H[Aib]EGTFTSDVSK([AEEA-AEEA-γGlu-13‑carboxytridecanoyl])YLEEQAAREFIAK([AEEA-AEEA-γGlu-13‑carboxytridecanoyl])LVRGRG [GLP-1 derivative of Example 73: [Aib8,Lys18,Glu22,Arg26,Lys31,Arg34]-GLP-1-(7-37)-peptide] | > 1 | < 1 µM
7 | HXEGTFTSDVSKYLEGQAAKEFIAWLVRGRG (Aib8; Lys18 and Lys26 each Nε-acylated with 10-(4-carboxyphenoxy)decanoyl-OEG-OEG-gGlu) [GLP-1 derivative of Example 115: [Aib8,Lys18,Arg34]-GLP-1-(7-37)-peptide] | > 1 | < 1 µM
8 | H[Aib]EGTFTSDVSKYLEGQAAVKFIAWLVRGRG (not fully specified (residues 12, 21), also called Chem. 87) [GLP-1 derivative of Example 68: [Aib8,Lys18,Val26,Lys27,Arg34]-GLP-1-(7-37)-peptide] | > 1 | < 1 µM
9 | H[Aib]EGTFTSDVSK([AEEA-AEEA-γGlu-Decanoyl(10-(4-HOOC-PhO))])YLEEQAAREFIAK([AEEA-AEEA-γGlu-Decanoyl(10-(4-HOOC-PhO))])LVRGRG [GLP-1 derivative of Example 3: [Aib8,Lys18,Glu22,Arg26,Lys31,Arg34]-GLP-1-(7-37)-peptide] | > 1 | < 1 µM
10 | H[Aib]EGTFTSDVSK([AEEA-AEEA-γGlu-13‑carboxytridecanoyl])YLEGQAVREFIAK([AEEA-AEEA-γGlu-13‑carboxytridecanoyl])LVRGRG [GLP-1 derivative of Example 112: [Aib8,Lys18,Val25,Arg26,Lys31,Arg34]-GLP-1-(7-37)-peptide] | > 1 | < 1 µM
11 | H[Aib]EGTFTSDVSK([AEEA-AEEA-γGlu-γGlu-γGlu-13‑carboxytridecanoyl])YLEEQAVREFIAK([AEEA-AEEA-γGlu-γGlu-γGlu-13‑carboxytridecanoyl])LVRGRG [GLP-1 derivative of Example 102: [Aib8,Lys18,Glu22,Val25,Arg26,Lys31,Arg34]-GLP-1-(7-37)-peptide] | > 1 | < 1 µM
12 | H[Aib]EGTFTSDVSK([AEEA-AEEA-γGlu-13‑carboxytridecanoyl])YLEEQAAREFIK([AEEA-AEEA-γGlu-13‑carboxytridecanoyl])WLVRGRG [GLP-1 derivative of Example 51: [Aib8,Lys18,Glu22,Arg26,Lys30,Arg34]-GLP-1-(7-37)-peptide] | > 1 | < 1 µM
13 | H[Aib]EGTFTSDVSK([AEEA-AEEA-γGlu-Decanoyl(10-(4-HOOC-PhO))])YLEEQAVRK([AEEA-AEEA-γGlu-Decanoyl(10-(4-HOOC-PhO))])FIAWLVQGRG [GLP-1 derivative of Example 41: [Aib8,Lys18,Glu22,Val25,Arg26,Lys27,Gln34]-GLP-1-(7-37)-peptide] | > 1 | < 1 µM
14 | H[Aib]EGTFTSDVSK([AEEA-AEEA-γGlu-Decanoyl(10-(4-HOOC-PhO))])YLEGQAAK([AEEA-AEEA-γGlu-Decanoyl(10-(4-HOOC-PhO))])EFIAWLVQGRG [GLP-1 derivative of Example 92: [Aib8,Lys18,Gln34]-GLP-1-(7-37)-peptide] | > 1 | < 1 µM
15 | H[Aib]EGTFTSDVSK([AEEA-AEEA-γGlu-Decanoyl(10-(4-HOOC-PhO))])YLEEQAAK([AEEA-AEEA-γGlu-Decanoyl(10-(4-HOOC-PhO))])EFIAWLVRGRG [GLP-1 derivative of Example 88: [Aib8,Lys18,Glu22,Arg34]-GLP-1-(7-37)-peptide] | > 1 | < 1 µM
16 | HXEGTFTSDVSKYLEGQAAKEFIAWLVRGRG (Aib8; Lys18 and Lys26 each Nε-acylated with 11-carboxyundecanoyl-gGlu-gGlu-OEG-OEG) [GLP-1 derivative of Example 108: [Aib8,Lys18,Arg34]-GLP-1-(7-37)-peptide] | > 1 | < 1 µM
17 | HXEGTFTSDVSKYLEGQAAKEFIAWLVRGRG (Aib8; Lys18 and Lys26 each Nε-acylated with 13-carboxytridecanoyl-gGlu-gGlu-OEG-OEG) [GLP-1 derivative of Example 103: [Aib8,Lys18,Arg34]-GLP-1-(7-37)-peptide] | > 1 | < 1 µM
18 | H[Aib]EGTFTSDVSK([AEEA-AEEA-γGlu-Decanoyl(10-(4-HOOC-PhO))])YLEEQAVREFIAK([AEEA-AEEA-γGlu-Decanoyl(10-(4-HOOC-PhO))])LVRGRG [GLP-1 derivative of Example 76: [Aib8,Lys18,Glu22,Val25,Arg26,Lys31,Arg34]-GLP-1-(7-37)-peptide] | > 1 | < 1 µM
19 | HAEGTFTSDVSK([AEEA-AEEA-γGlu-Ahx-γGlu-Butanoyl(4-Ph)])YLEGQAAK([AEEA-AEEA-γGlu-Ahx-γGlu-Butanoyl(4-Ph)])EFIAWLVRGRG [GLP-1 derivative of Example 110: [Lys18,Arg34]-GLP-1-(7-37)-peptide] | > 1 | < 1 µM
20 | HAEGTFTSDVSK([AEEA-AEEA-γGlu-C12 diacid])YLEEQAVREFIAK([AEEA-AEEA-γGlu-C12 diacid])LVRGRG [GLP-1 derivative of Example 124: [Lys18,Glu22,Val25,Arg26,Lys31,Arg34]-GLP-1-(7-37)-peptide] | > 1 | < 1 µM
21 | HAEGTFTSDVSK([γGlu-AEEA-AEEA-γGlu-13‑carboxytridecanoyl])YLEEQAVREFIAK([γGlu-AEEA-AEEA-γGlu-13‑carboxytridecanoyl])LVRGRG [GLP-1 derivative of Example 111: [Lys18,Glu22,Val25,Arg26,Lys31,Arg34]-GLP-1-(7-37)-peptide] | > 1 | < 1 µM
22 | HAEGTFTSDVSK([AEEA-AEEA-γGlu-2‑(2-(trifluoromethyl)phenyl)acetyl])YLEK([AEEA-AEEA-γGlu-2‑(2-(trifluoromethyl)phenyl)acetyl])QAAREFIAWLVQGRG [GLP-1 derivative of Example 125: [Lys18,Lys22,Arg26,Gln34]-GLP-1-(7-37)-peptide] | > 1 | < 1 µM
23 | HAEGTFTSDVSK([AEEA-AEEA-γGlu-13‑carboxytridecanoyl])YLEEQAVRK([AEEA-AEEA-γGlu-13‑carboxytridecanoyl])FIAHLVQGRG [GLP-1 derivative of Example 118: [Lys18,Glu22,Val25,Arg26,Lys27,His31,Gln34]-GLP-1-(7-37)-peptide] | > 1 | < 1 µM
24 | HAEGTFTSDVSK([AEEA-AEEA-γGlu-13‑carboxytridecanoyl])YLEEQAVREFIAK([AEEA-AEEA-γGlu-13‑carboxytridecanoyl])LVRGRG-NH2 [GLP-1 derivative of Example 133: [Lys18,Glu22,Val25,Arg26,Lys31,Arg34]-GLP-1-(7-37)-peptide amide] | > 1 | < 1 µM
25 | HAEGTFTSDVSK([AEEA-AEEA-γGlu-γGlu-13‑carboxytridecanoyl])YLEK([AEEA-AEEA-γGlu-γGlu-13‑carboxytridecanoyl])QAAREFIAWLVQGRG [GLP-1 derivative of Example 126: [Lys18,Lys22,Arg26,Gln34]-GLP-1-(7-37)-peptide] | > 1 | < 1 µM
26 | HAEGTFTSDVSK([AEEA-AEEA-γGlu-2‑(4-(4-fluorophenoxy)phenyl)acetyl])YLEK([AEEA-AEEA-γGlu-2‑(4-(4-fluorophenoxy)phenyl)acetyl])QAAREFIAWLVQGRG [GLP-1 derivative of Example 120: [Lys18,Lys22,Arg26,Gln34]-GLP-1-(7-37)-peptide] | > 1 | < 1 µM
27 | HAEGTFTSDVSK([AEEA-AEEA-γGlu-Ahx-γGlu-Hexanoyl(6-Ph)])YLEGQAAK([AEEA-AEEA-γGlu-Ahx-γGlu-Hexanoyl(6-Ph)])EFIAWLVRGRG [GLP-1 derivative of Example 129: [Lys18,Arg34]-GLP-1-(7-37)-peptide] | > 1 | < 1 µM
28 | HAEGTFTSDVSK([AEEA-AEEA-γGlu-13‑carboxytridecanoyl])YLEEQAAHK([AEEA-AEEA-γGlu-13‑carboxytridecanoyl])FIAHLVQGRG [GLP-1 derivative of Example 119: [Lys18,Glu22,His26,Lys27,His31,Gln34]-GLP-1-(7-37)-peptide] | > 1 | < 1 µM
